First the molecules themselves.
B1: MLL5 (parent)
chain: EQIAERKRKMVSWEASSLGLVTAA
B2: LRRC45 (parent)
chain: DLSAANEKNLLLQNQVDELERKFR
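Also: lentivirally expressed fusions sorted by FACS into six bins by GFP to DsRed ratio, PSI derived from sequencing read proportions per bin multiplied by bin number.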

In one series the parent is B1. The series can be described thus: protein stability index of a GFP-peptide fusion (GPS, HEK-293T) (PSI 1-6); higher = more stable. The note with it: c terminus: a fixed tail appended.
EQIAERKRKMVSWEASHLGLVTAA: the protein stability index worked out at 2.7.
For the variant EQIAERKRKMVSWEASVLGLVTAA, the protein stability index was 2.31.
In the case of EQIAERKRKMVSWEASFLGLVTAA, the protein stability index came to 1.37.
As for EQIAERKRKMVSWEASNLGLVTAA, the protein stability index was 2.71.
For EQIAERKRKMVSWEASLLGLVTAA, the protein stability index turned out to be 3.15.
The same measure, in the same setting: for EQIAERKRKMVSWEASDLGLVTAA the value was 2.98; for EQIAERKRKMVSWEASGLGLVTAA, 3.12; for EQIAERKRKMVSWEASQLGLVTAA, 3.08.
EQIAERKRKMVSWEASPLGLVTAA: the protein stability index came out at 3.46.
Consider EQIAERKRKMVSWEASTLGLVTAA, for which the protein stability index is 2.98.
Take EQIAERKRKMVSWEASCLGLVTAA: the protein stability index was found to be 1.44.
Consider EQIAERKRKMVSWEASALGLVTAA, for which the protein stability index was found to be 2.77.
As to EQIAERKRKMVSWEASYLGLVTAA, the protein stability index is 2.43.
On the same count and under the same terms, for EQIAERKRKMVSWEASWLGLVTAA the value was 1.76.
On to EQIAERKRKMVSWEASELGLVTAA, for which the protein stability index worked out at 3.41.
As for EQIAERKRKMVSWEASMLGLVTAA, the protein stability index amounted to 1.54.
With EQIAERKRKMVSWEASKLGLVTAA, the protein stability index amounted to 3.54.
As for EQIAERKRKMVSWEASSLGLVTEA, the protein stability index was found to be 3.96.
For EQIAERKRKMVSWEASSLGLVTRA, the protein stability index stood at 2.63.
Still for that read-out and setting: next, EQIAERKRKMVSWEASSLGLVTSA: 2.68.
As for EQIAERKRKMVSWEASSLGLVTPA, the protein stability index is 3.41.
For EQIAERKRKMVSWEASSLGLVTFA, the protein stability index is 1.58.
Consider EQIAERKRKMVSWEASSLGLVTDA, for which the protein stability index turned out to be 3.98.
Regarding EQIAERKRKMVSWEASSLGLVTCA, the protein stability index is 3.12.
With EQIAERKRKMVSWEASSLGLVTYA, the protein stability index stood at 2.28.
For the variant EQIAERKRKMVSWEASSLGLVTWA, the protein stability index came to 2.08.
For EQIAERKRKMVSWEASSLGLVTMA, the protein stability index was found to be 3.11.
Turning to EQIAERKRKMVSWEASSLGLVTKA, the protein stability index is 3.27.
In the case of EQIAERKRKMVSWEASSLGLVTNA, the protein stability index was 2.31.
On the same count and under the same terms, for EQIAERKRKMVSWEASSLGLVTIA the value was 3.23.
As to EQIAERKRKMVSWEASSLGLVTTA, the protein stability index came to 2.31.
On to EQIAERKRKMVSWEASSLGLVTQA, for which the protein stability index came to 2.31.

In the next series the parent is B2. The description is as above. The note with it: c terminus: a fixed tail appended.
On to DLSAAKEKNLLLQNQVDELERKFR, for which the protein stability index was 4.51.
As for DLSAAIEKNLLLQNQVDELERKFR, the protein stability index was 3.27.
In the case of DLSAATEKNLLLQNQVDELERKFR, the protein stability index turned out to be 4.4.
In the case of DLSAAAEKNLLLQNQVDELERKFR, the protein stability index was 5.2.
For the variant DLMAANEKNLLLQNQVDELERKFR, the protein stability index is 4.11.
On the same count and under the same terms, next, DLCAANEKNLLLQNQVDELERKFR: 3.74.
For the variant DLTAANEKNLLLQNQVDELERKFR, the protein stability index is 3.62.
In the case of DLVAANEKNLLLQNQVDELERKFR, the protein stability index turned out to be 3.89.
Regarding DLSAANEKNALLQNQVDELERKFR, the protein stability index came to 4.18.
As to DLSAANEKNDLLQNQVDELERKFR, the protein stability index came to 4.86.
With DLSAANEKNWLLQNQVDELERKFR, the protein stability index turned out to be 3.89.
Same read-out and setting: for DLSAANEINLLLQNQVDELERKFR the value was 3.43.
For the variant DLSAANEPNLLLQNQVDELERKFR, the protein stability index was found to be 4.35.
Same read-out and setting: for DLSAANEKNLLLQNQVDEGERKFR the value was 4.41.
Still for that read-out and setting: for DLSAANEKNLLLQNQVDEMERKFR the value was 4.03; for DLSAANEKNLLLQNQVDEPERKFR, 3.78; for DLSAANEKNLLLQNQVDENERKFR, 4.27.
With DLSAANEKNLLLQNQVDHLERKFR, the protein stability index was determined as 3.35.
Take DLSAANEKNLLLQNQVDWLERKFR: the protein stability index worked out at 3.36.
The same measure, in the same setting: next, DLSAANEKNLLLQNQVMELERKFR: 3.58; DLSAANEKNLLLQNQVCELERKFR: 3.24; DLSAANEKNLLLQNQVTELERKFR: 2.96.
On to DLSAGNEKNLLLQNQVDELERKFR, for which the protein stability index was found to be 4.22.
In the case of DLSADNEKNLLLQNQVDELERKFR, the protein stability index came out at 3.69.
For DLSAANEKNLLLQNQVDELYRKFR, the protein stability index worked out at 2.86.
On to DLSAANEKNLLLQNQVDELIRKFR, for which the protein stability index amounted to 3.47.
As to DLSAANEKNLLLQNQVDELLRKFR, the protein stability index is 3.23.
As for DLSAANEKNLLLQNFVDELERKFR, the protein stability index came out at 2.32.
With DLSAANEKNLLLQNEVDELERKFR, the protein stability index turned out to be 4.7.
In the case of DLSAANEKNLLLQNLVDELERKFR, the protein stability index came out at 3.01.
For the variant DLSAANEKNLLLQNQVDELERKFQ, the protein stability index turned out to be 4.91.
In the case of DLSAANEKNLLLQNQVDELERKFT, the protein stability index came out at 4.14.
For the variant DLSAANEKNLLLQNQEDELERKFR, the protein stability index was found to be 4.72.
DLSAANEKNLLLQNQWDELERKFR: the protein stability index stood at 3.55.
On to DCSAANEKNLLLQNQVDELERKFR, for which the protein stability index stood at 4.76.
In the case of DYSAANEKNLLLQNQVDELERKFR, the protein stability index was 4.85.
On to DGSAANEKNLLLQNQVDELERKFR, for which the protein stability index is 4.78.
On to DESAANEKNLLLQNQVDELERKFR, for which the protein stability index turned out to be 5.13.
As for DLSAANEKNLLLQNQVDELEHKFR, the protein stability index was determined as 4.22.
Same read-out and setting: for DLSAANEKNLLLQNQVDELEEKFR the value was 4.56; for DLSAANEKNLLLQNQVDELEPKFR, 4.2.
As for PLSAANEKNLLLQNQVDELERKFR, the protein stability index is 4.17.
As to MLSAANEKNLLLQNQVDELERKFR, the protein stability index stood at 4.23.
Same read-out and setting: for GLSAANEKNLLLQNQVDELERKFR the value was 4.55; for KLSAANEKNLLLQNQVDELERKFR, 4.19; for NLSAANEKNLLLQNQVDELERKFR, 4.4.
Consider DLSAANEKPLLLQNQVDELERKFR, for which the protein stability index is 4.3.
Same read-out and setting: next, DLSAANEKHLLLQNQVDELERKFR: 4.2; DLSNANEKNLLLQNQVDELERKFR: 3.29; DLSWANEKNLLLQNQVDELERKFR: 3.78.
As to DLSCANEKNLLLQNQVDELERKFR, the protein stability index amounted to 3.85.
For the variant DLSAANEKNLELQNQVDELERKFR, the protein stability index was determined as 4.84.
For the variant DLSAANEKNLYLQNQVDELERKFR, the protein stability index was 4.2.
The same measure, in the same setting: for DLSAANEKNLNLQNQVDELERKFR the value was 4.5; for DLSAANEKNLLHQNQVDELERKFR, 4.
For the variant DLSAANEKNLLYQNQVDELERKFR, the protein stability index turned out to be 4.08.
Still for that read-out and setting: for DLSAANEKNLLLCNQVDELERKFR the value was 4.03; for DLSAANEKNLLLGNQVDELERKFR, 4.11.
Still for that read-out and setting: next, DLSAANEKNLLLHNQVDELERKFR: 3.66; DLSAANEKNLLLINQVDELERKFR: 3.6; DLSAANEKNLLLQFQVDELERKFR: 3.02.
For DLSAANEKNLLLQAQVDELERKFR, the protein stability index turned out to be 3.95.

(Values after the supplement of paper PMC10567573.)
